Key:
Assay in all cases: fluorescence anisotropy
PABP1 (WT) [1] = molecular target: T1, PABP1 (WT) (human, UniProt P11940 1-636)
PABP1 (WT) [2] = molecular target: T1, PABP1 (WT); remark: listed apart in the source
scPABP1 = scPABP1 (human, UniProt P11940 1-636, C43S;C128S;C132S)
Sequence of scPABP1 (P11940 whole entry C43S/C128S/C132S): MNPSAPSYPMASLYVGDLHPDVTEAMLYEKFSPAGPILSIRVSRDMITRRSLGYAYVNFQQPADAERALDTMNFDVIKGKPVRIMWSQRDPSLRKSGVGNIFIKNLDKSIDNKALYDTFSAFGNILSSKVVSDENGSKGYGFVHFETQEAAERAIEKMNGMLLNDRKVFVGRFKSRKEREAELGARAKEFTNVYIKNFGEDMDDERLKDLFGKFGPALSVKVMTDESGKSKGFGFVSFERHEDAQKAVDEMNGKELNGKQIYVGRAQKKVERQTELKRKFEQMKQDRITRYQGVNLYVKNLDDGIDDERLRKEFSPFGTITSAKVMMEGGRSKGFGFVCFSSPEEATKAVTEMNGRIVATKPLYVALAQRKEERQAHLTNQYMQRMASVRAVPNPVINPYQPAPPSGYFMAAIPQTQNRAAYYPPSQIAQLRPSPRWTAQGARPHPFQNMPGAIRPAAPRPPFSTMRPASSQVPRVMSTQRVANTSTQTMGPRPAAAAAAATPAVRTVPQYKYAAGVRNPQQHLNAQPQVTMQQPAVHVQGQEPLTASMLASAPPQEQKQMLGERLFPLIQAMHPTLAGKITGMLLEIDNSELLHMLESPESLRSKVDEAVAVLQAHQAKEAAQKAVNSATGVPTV

T1 sequence (P11940 whole entry): as the sequence (P11940 whole entry C43S/C128S/C132S) above, with S43C, S128C, S132C counted along it

CCCCCCCCCCCCCCCCCU (ssRNA) [Poly (C)18]: no binding (PABP1 (WT) [1]).

AAAAAAAAAAAAAAAAAU (ssRNA) [Poly (A)18] showed a Kd (PABP1 (WT) [2]) of 2 ± 0.5 nM and a Kd (scPABP1) of 5.1 ± 0.6 nM.
